Measured values: article PMC9557730 (2022)

B1: N-terminal 3×-FLAG-tagged p52 (WT) [human] / p8 [human (endogenous in HEK293T)] (parent complex)
chain 1: MESTPSRGLNRVHLQCRNLQEFLGGLSPGVLDRLYGHPATCLAVFRELPSLAKNWVMRMLFLEQPLPQAAVALWVKKEFSKAQEESTGLLSGLRIWHTQLLPGGLQGLILNPIFRQNLRIALLGGGKAWSDDTSQLGPDKHARDVPSLDKYAEERWEVVLHFMVGSPSAAVSQDLAQLLSQAGLMKSTEPGEPPCITSAGFQFLLLDTPAQLWYFMLQYLQTAQSRGMDLVEILSFLFQLSFSTLGKDYSVEGMSDSLLNFLQHLREFGLVFQRKRKSRRYYPTRLAINLSSGVSGAGGTVHQPGFIVVETNYRLYAYTESELQIALIALFSEMLYRFPNMVVAQVTRESVQQAIASGITAQQIIHFLRTRAHPVMLKQTPVLPPTITDQIRLWELERDRLRFTEGVLYNQFLSQVDFELLLAHARELGVLVFENSAKRLMVVTPAGHSDVKRFWKRQKHSS
chain 2: MVNVLKGVLIECDPAMKQFLLYLDESNALGKKFIIQDIDDTHVFVIAELVNVLQERVGELMDQNAFSLTQK
B2: N-terminal 3×-FLAG-tagged p52 (WT) [human] / XPB [human (endogenous in HEK293T)] (parent complex)
chain 1: B1 chain 1
chain 2: MGKRDRADRDKKKSRKRHYEDEEDDEEDAPGNDPQEAVPSAAGKQVDESGTKVDEYGAKDYRLQMPLKDDHTSRPLWVAPDGHIFLEAFSPVYKYAQDFLVAIAEPVCRPTHVHEYKLTAYSLYAAVSVGLQTSDITEYLRKLSKTGVPDGIMQFIKLCTVSYGKVKLVLKHNRYFVESCHPDVIQHLLQDPVIRECRLRNSEGEATELITETFTSKSAISKTAESSGGPSTSRVTDPQGKSDIPMDLFDFYEQMDKDEEEEEETQTVSFEVKQEMIEELQKRCIHLEYPLLAEYDFRNDSVNPDINIDLKPTAVLRPYQEKSLRKMFGNGRARSGVIVLPCGAGKSLVGVTAACTVRKRCLVLGNSAVSVEQWKAQFKMWSTIDDSQICRFTSDAKDKPIGCSVAISTYSMLGHTTKRSWEAERVMEWLKTQEWGLMILDEVHTIPAKMFRRVLTIVQAHCKLGLTATLVREDDKIVDLNFLIGPKLYEANWMELQNNGYIAKVQCAEVWCPMSPEFYREYVAIKTKKRILLYTMNPNKFRACQFLIKFHERRNDKIIVFADNVFALKEYAIRLNKPYIYGPTSQGERMQILQNFKHNPKINTIFISKVGDTSFDLPEANVLIQISSHGGSRRQEAQRLGRVLRAKKGMVAEEYNAFFYSLVSQDTQEMAYSTKRQRFLVDQGYSFKVITKLAGMEEEDLAFSTKEEQQQLLQKVLAATDLDAEEEVVAGEFGSRSSQASRRFGTMSSMSGADDTVYMEYHSSRSKAPSKHVHPLFKRFRK

Variants of: B1
Assay: FLAG-IP LC–MS (iBAQ); HEK293T nuclear extracts; n = 3, biological replicates; read off a plot

| Variant | response [Normalized Log2 iBAQ] |
| --- | --- |
| chain 1 MESTPSRGLNRVHLQCRNLQEFLGGLSPGVLDRLYGHPATCLAVFRELPSLAKNWVMRMLFLEQPLPQAAVALWVKKEFSKAQEESTGLLSGLRIWHTQLLPGGLQGLILNPIFRQNLRIALLGGGKAWSDDTSQLGPDKHARDVPSLDKYAEERWEVVLHFMVGSPSAAVSQDLAQLLSQAGLMKSTEPGEPPCITSAGFQFLLLDTPAQLWYFMLQYLQTAQSRGMDLVEILSFLFQLSFSTLGKDYSVEGMSDSLLNFLQHLREFGLVFQRKRKSRRYYPTRLAINLSSGVSGAGGTVHQPGFIVVATNYALYAYTESELQIALIALFSEMLYRFPNMVVAQVTRESVQQAIASGITAQQIIHFLRTRAHPVMLKQTPVLPPTITDQIRLWELERDRLRFTEGVLYNQFLSQVDFELLLAHARELGVLVFENSAKRLMVVTPAGHSDVKRFWKRQKHSS [chain 1 E310A, chain 1 R314A] | ~0.83 |
| chain 1 MESTPSRGLNRVHLQCRNLQEFLGGLSPGVLDRLYGHPATCLAVFRELPSLAKNWVMRMLFLEQPLPQAAVALWVKKEFSKAQEESTGLLSGLRIWHTQLLPGGLQGLILNPIFRQNLRIALLGGGKAWSDDTSQLGPDKHARDVPSLDKYAEERWEVVLHFMVGSPSAAVSQDLAQLLSQAGLMKSTEPGEPPCITSAGFQFLLLDTPAQLWYFMLQYLQTAQSRGMDLVEILSFLFQLSFSTLGKDYSVEGMSDSLLNFLQHLREFGLVFQRKRKSRRYYPTRLAINLSSGVSGAGGTVHQPGFIVVETNYRLAAATESELQIALIALFSEMLYRFPNMVVAQVTRESVQQAIASGITAQQIIHFLRTRAHPVMLKQTPVLPPTITDQIRLWELERDRLRFTEGVLYNQFLSQVDFELLLAHARELGVLVFENSAKRLMVVTPAGHSDVKRFWKRQKHSS [chain 1 Y316A, chain 1 Y318A] | ~0.83 |
| chain 1 MESTPSRGLNRVHLQCRNLQEFLGGLSPGVLDRLYGHPATCLAVFRELPSLAKNWVMRMLFLEQPLPQAAVALWVKKEFSKAQEESTGLLSGLRIWHTQLLPGGLQGLILNPIFRQNLRIALLGGGKAWSDDTSQLGPDKHARDVPSLDKYAEERWEVVLHFMVGSPSAAVSQDLAQLLSQAGLMKSTEPGEPPCITSAGFQFLLLDTPAQLWYFMLQYLQTAQSRGMDLVEILSFLFQLSFSTLGKDYSVEGMSDSLLNFLQHLREFGLVFQRKRKSRRYYPTRLAINLSSGVSGAGGTVHQPGFIVVFTNYRLYAYTESELQIALIALFSEMLYRFPNMVVAQVTRESVQQAIASGITAQQIIHFLRTRAHPVMLKQTPVLPPTITDQIRLWELERDRLRFTEGVLYNQFLSQVDFELLLAHARELGVLVFENSAKRLMVVTPAGHSDVKRFWKRQKHSS [chain 1 E310F] | ~0.86 |
| chain 1 MESTPSRGLNRVHLQCRNLQEFLGGLSPGVLDRLYGHPATCLAVFRELPSLAKNWVMRMLFLEQPLPQAAVALWVKKEFSKAQEESTGLLSGLRIWHTQLLPGGLQGLILNPIFRQNLRIALLGGGKAWSDDTSQLGPDKHARDVPSLDKYAEERWEVVLHFMVGSPSAAVSQDLAQLLSQAGLMKSTEPGEPPCITSAGFQFLLLDTPAQLWYFMLQYLQTAQSRGMDLVEILSFLFQLSFSTLGKDYSVEGMSDSLLNFLQHLREFGLVFQRKRKSRRYYPTRLAINLSSGVSGAGGTVHQPGFIVVETNYRLYAYTESELQIALIALFSEMLYAAPNMVVAQVTRESVQQAIASGITAQQIIHFLRTRAHPVMLKQTPVLPPTITDQIRLWELERDRLRFTEGVLYNQFLSQVDFELLLAHARELGVLVFENSAKRLMVVTPAGHSDVKRFWKRQKHSS [chain 1 R337A, chain 1 F338A] | ~0.84 |

Variants of: B2
Assay: FLAG-IP–Western; HEK293T nuclear extracts; n = 3, biological replicates; read off a plot

| Variant | response [Normalized Western Signal] |
| --- | --- |
| chain 1 MESTPSRGLNRVHLQCRNLQEFLGGLSPGVLDRLYGHPATCLAVFRELPSLAKNWVMRMLFLEQPLPQAAVALWVKKEFSKAQEESTGLLSGLRIWHTQLLPGGLQGLILNPIFRQNLRIALLGGGKAWSDDTSQLGPDKHARDVPSLDKYAEERWEVVLHFMVGSPSAAVSQDLAQLLSQAGLMKSTEPGEPPCITSAGFQFLLLDTPAQLWYFMLQYLQTAQSRGMDLVEILSFLFQLSFSTLGKDYSVEGMSDSLLNFLQHLREFGLVFQRKRKSRRYYPTRLAINLSSGVSGAGGTVHQPGFIVVETNYRLYAYTESELQIALIALFSEMLYAAPNMVVAQVTRESVQQAIASGITAQQIIHFLRTRAHPVMLKQTPVLPPTITDQIRLWELERDRLRFTEGVLYNQFLSQVDFELLLAHARELGVLVFENSAKRLMVVTPAGHSDVKRFWKRQKHSS [chain 1 R337A, chain 1 F338A] | ~0.03 |

Variants of: B2
Assay: FLAG-IP LC–MS (iBAQ); HEK293T nuclear extracts; n = 3, biological replicates; read off a plot

| Variant | response [Normalized Log2 iBAQ] |
| --- | --- |
| chain 1 MESTPSRGLNRVHLQCRNLQEFLGGLSPGVLDRLYGHPATCLAVFRELPSLAKNWVMRMLFLEQPLPQAAVALWVKKEFSKAQEESTGLLSGLRIWHTQLLPGGLQGLILNPIFRQNLRIALLGGGKAWSDDTSQLGPDKHARDVPSLDKYAEERWEVVLHFMVGSPSAAVSQDLAQLLSQAGLMKSTEPGEPPCITSAGFQFLLLDTPAQLWYFMLQYLQTAQSRGMDLVEILSFLFQLSFSTLGKDYSVEGMSDSLLNFLQHLREFGLVFQRKRKSRRYYPTRLAINLSSGVSGAGGTVHQPGFIVVETNYRLYAYTESELQIALIALFSEMLYAAPNMVVAQVTRESVQQAIASGITAQQIIHFLRTRAHPVMLKQTPVLPPTITDQIRLWELERDRLRFTEGVLYNQFLSQVDFELLLAHARELGVLVFENSAKRLMVVTPAGHSDVKRFWKRQKHSS [chain 1 R337A, chain 1 F338A] | ~0.67 |
